Consider 1 molecule from PMC5882628, “Development of a Cell-Based Assay to Assess Binding of the proNGF Prodomain to Sortilin” (Cellular and Molecular Neurobiology, 2017).

Assay [1] concerns the target T1, sortilin (Homo sapiens, UniProt Q99523).
T1 construct: They were transfected with plasmids either encoding wild type sortilin, or sortilin with a mutation that renders it endocytosis deficient; expressed in transfected cells; host or cells: HEK 293 cells, transient transfection (lipofectamine)
T1 sequence (Q99523 78-831): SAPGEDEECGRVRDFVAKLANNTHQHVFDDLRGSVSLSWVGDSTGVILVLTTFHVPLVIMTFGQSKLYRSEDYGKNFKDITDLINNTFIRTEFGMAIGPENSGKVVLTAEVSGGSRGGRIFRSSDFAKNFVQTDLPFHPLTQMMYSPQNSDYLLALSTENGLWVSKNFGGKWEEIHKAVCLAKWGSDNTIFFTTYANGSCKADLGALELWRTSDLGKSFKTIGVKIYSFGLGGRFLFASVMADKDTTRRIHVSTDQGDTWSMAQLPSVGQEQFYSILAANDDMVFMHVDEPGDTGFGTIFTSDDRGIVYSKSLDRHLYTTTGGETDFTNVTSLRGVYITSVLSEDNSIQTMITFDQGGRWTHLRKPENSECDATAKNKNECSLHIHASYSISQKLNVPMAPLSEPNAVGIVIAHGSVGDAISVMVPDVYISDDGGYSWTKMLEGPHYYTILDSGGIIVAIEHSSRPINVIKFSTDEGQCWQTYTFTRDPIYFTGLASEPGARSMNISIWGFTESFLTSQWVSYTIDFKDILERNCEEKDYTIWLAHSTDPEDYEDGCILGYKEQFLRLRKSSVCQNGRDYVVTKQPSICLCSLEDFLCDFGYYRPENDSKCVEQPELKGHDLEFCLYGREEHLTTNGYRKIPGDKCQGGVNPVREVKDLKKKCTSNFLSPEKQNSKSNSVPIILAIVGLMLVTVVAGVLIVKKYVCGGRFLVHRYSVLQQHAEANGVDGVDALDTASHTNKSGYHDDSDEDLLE
The assay can be described thus: GSTpro internalization: acid wash (PBS, pH 2.0) before fixation. The assay is classed as cell-based. To be noted: PBS pH 2.0 immediately before fixation. From the text: To further examine whether GSTpro was internalized, rather than only binding to the cell exterior, extracellularly bound ligand was removed by washing cells in PBS acidified to pH 2.0 with HCl supplemented with 0.03 M sucrose and 10% FCS immediately before fixation.
It was not clear whether the detected ligand signal was only due to GSTpro binding to sortilin, or whether sortilin would be subsequently internalized. To determine if GSTpro was endocytosed after sortilin binding, we performed immunocytochemical staining with and without detergent (Fig. 6a, b, respectively). […] However, alternative interpretations are also possible (see discussion). […] We investigated if GSTpro was bound to the cell surface by using an acid wash to remove surface bound GSTpro. Cells were washed in PBS, pH 2.0 immediately before fixation, to remove extracellular ligand bound to receptors.

Assay [2] has as its target sortilin. As to conditions: immobilized sortilin; ref Nykjaer et al. [2004]; read-out: affinity (immobilized sortilin); cited from earlier work. From the text:
The assay was also used to screen for blocking of sortilin-GSTpro interaction with compound AF38469, which ...

In assay [3] the target is T1, sortilin. The assay can be described thus: Cell-based assay of GSTpro (NGF prodomain) binding/uptake, wt sortilin-transfected HEK293 cells, sortilin/GST double stain, high content imaging, with detergent. As to conditions: for signal and assay window, GSTpro compared to proNGF (in words): Fig. 3u, sortilin-transfected cells. The procedure: HEK 293 cells were grown in DMEM with 10% fetal bovine serum. They were transfected with plasmids either encoding wild type sortilin, or sortilin with a mutation that renders it endocytosis deficient, or an empty control vector according to manufacturer’s instructions using 20 µg lipofectamine (Thermo Fischer Scientific) with 8 µg DNA on […] per 6 cm, poly-lysine coated dish. The cells were initially plated into 24-well dishes after transfection. That intermediate step rendered more uniform cell numbers in the 96-well dishes that were used to run the actual assay. 24 h later, cells were split into black opaque-walled, clear-bottom 96 well dishes at 42000 cells in 80 µl medium/well. […] 1 h after that treatment, the medium was replaced with 80 µl medium containing the same antibody, compounds or peptides included in the preincubation medium, plus recombinant GSTpro or proNGF (either purified in-house from recombinant HEK cells or derived from an E.coli expression system at either 0 nM (negative control), or 50 nM, or, in a few instances at 5 or 10 nM. The respective concentrations are indicated in the figures 45 min after adding GSTpro or proNGF, cells were washed twice with prewarmed PBS and fixed in 4% PFA for 20 min at approximately 20 °C.
The fixed cells were washed with PBS for 15 min, followed by two 15 min washes with PBS with 0.1% Triton X-100. […] Wells to be evaluated for blocking of the sortilin-GSTpro interaction by antibodies were only stained with an antibody against the pro domain of proNGF in 10% FBS at a dilution of 1:1500 (Millipore (N-term) clone EPI318Y, Rabbit Monoclonal Antibody Catalog Number: #04-1142). […]
The following day, wells were washed 3 × 15 min with PBS/0.1% Triton X-100. […] Cellular fluorescence was quantified using an array scanner and the “Neuronal Profiler” Bioapplication (Thermo Fisher Scientific) as described below.
Sortilin-GSTpro interaction was also assessed using HEK cell derived cell lines stably expressing sortilin. […]
Images from 96 well dishes were automatically recorded with a Cellomics ArrayScan VTI HCS Reader (Thermo Scientific) using a 10× microscope objective and the build-in standard autofocus method. Fifteen 1024 × 1024 images in 4 channels (Channel 1 and 2: Filter XF5–Hoechst, to detect nuclei and all cells; Channel 3: XF53-Texas Red to detect, e.g., sortilin-positive cells; Channel 4: Filter XF93 – FITC, to detect cells positive, e.g., for the proNGF pro domain) were recorded per 96 well.
The images were analyzed with the Cellomics assay algorithm NeuronalProfiling.V3.5.

Entries after “also recorded” stand apart in the source; their conditions may differ.

B1: GSTpro: fusion of Glutathione S-transferase (GST) merged at the C-terminal of GST to the pro part (19–121) of human proNGF (protein)
chain: EPHSESNVPAGHTIPQAHWTKLQHSLDTALRRARSAPAAAIAARVAGQTRNITVDPRLFKKRRLRSPRVLFSTQPPREAADTQDLDFEVGGAAPFNRTHRSKR
modifications: left off: GST, N-terminal, kept
notes: fusion of Glutathione S-transferase (GST) merged at the C-terminal of GST to the pro part (19–121) of human proNGF
Regarding B1, the “fraction of GSTpro signal removed by acid wash (in words)” value with sortilin [1] is “only removes a small fraction of the GSTpro signal”. Further, in the assay with sortilin [1] (data not shown), the “reduction of GSTpro signal by acid wash” value is 20%. Further, the Kd on sortilin [2] was 8 nM. The “signal and assay window, GSTpro compared to proNGF (in words)” value is “substantially larger compared to proNGF” in the assay with sortilin [3]; “larger signal and assay window” with sortilin [3] (listed as GST-pro). Besides, the “GSTpro signal, sortilin-positive versus sortilin-negative (or control-transfected) cells (in words)” value in the assay with sortilin [3] (Figs. 3, 4b, 6, 7, 8) is “highly enhanced GSTpro uptake or binding; also recorded: several fold higher GSTpro signal in sortilin-positive cells”.
